Our source for the binding result and Kd values is doi:10.1101/2022.06.09.495453, “Molecular insights into human Shieldin complex assembly and recruitment to DSBs” (bioRxiv, 2022).

For orientation: Kd means the constant that tells how readily two partners part at equilibrium.

One test deals with T1, REV7^WT (human, UniProt Q9UI95 1-211).
T1 construct: REV7 (MAD2L2), human, HORMA domain protein; 211 residues printed; wild type; also called WT-REV7; MAD2L2; source: E. coli LOBSTR, purified (metal chelating column, tag cleavage, SEC)
Kind of test: SPR; SHLD3^1-62 or REV3^1871-2014 immobilised on an SCR HC30M chip by EDC-NHS coupling; REV7^WT or REV7^R124A injected in two-fold dilutions; buffer B with 0.05% Tween 20; KD estimated from plateau values at the end of the dissociation phase. The conditions noted are these: both partners purified.

Test [1] addresses REV7^R124A (human, UniProt Q9UI95 1-211, R124A). Kind of test: SPR. For orientation: In SPR one partner is held on a chip, and binding of the other changes the refractive index at the surface.
Test [2] concerns the target T2, REV7^R124A (human, UniProt Q9UI95 1-211, R124A).
T2 construct: REV7 (MAD2L2), human; 211 residues printed; R124A; also called R124A-REV7; source: E. coli LOBSTR, purified (metal chelating column, tag cleavage, SEC)
Kind of test: SPR; SHLD3^1-62 or REV3^1871-2014 immobilised on an SCR HC30M chip by EDC-NHS coupling; REV7^WT or REV7^R124A injected in two-fold dilutions; buffer B with 0.05% Tween 20; KD estimated from plateau values at the end of the dissociation phase. Conditions: both partners purified.
T2 sequence (Q9UI95 whole entry R124A): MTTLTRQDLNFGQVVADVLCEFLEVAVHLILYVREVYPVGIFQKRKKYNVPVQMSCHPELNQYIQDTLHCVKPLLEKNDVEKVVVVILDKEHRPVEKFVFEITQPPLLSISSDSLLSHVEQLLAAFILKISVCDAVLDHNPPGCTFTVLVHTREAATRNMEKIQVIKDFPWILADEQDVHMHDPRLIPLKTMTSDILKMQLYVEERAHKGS

The target of another test is T3, MBP-REV7^WT (human, UniProt Q9UI95 1-211).
T3 construct: REV7 (MAD2L2), human; 211 residues printed; wild type; source: E. coli LOBSTR, purified; not shown: hexahistidine-MBP, N-terminal, kept
Kind of test: pull-down; MBP pull-down of GST-SHLD3^1-83 with MBP-REV7^WT or MBP-REV7^core. Conditions: both partners purified.

T1 sequence (Q9UI95 whole entry, the tested form may be a part): as the sequence (Q9UI95 whole entry R124A) above, with A124R counted along it
T3 sequence (Q9UI95 whole entry): as the sequence (Q9UI95 whole entry R124A) above, with A124R counted along it

B1: REV3^1871-2014 (domain or fragment, human, UniProt O60673 1871-2014, looked up)
chain: TPRTANILKPLMSPPSREEIMATLLDHDLSETIYQEPFCSNPSDVPEKPREIGGRLLMVETRLANDLAEFEGDFSLEGLRLWKTAFSAMTQNPRPGSPLRSGQGVVNKGSSNSPKMVEDKKIVIMPCKCAPSRQLVQVWLQAKE
notes: REV3, human, residues 1871-2014 (holds RBM1 1875-1896 and RBM2 1991-2012); The general protocol cleaves the tag; source: E. coli LOBSTR, purified
In the case of B1, the binding result with REV7^WT is given as “binds”.

B2: SHLD3^1-62 (domain or fragment, human, UniProt Q6ZNX1 1-62, looked up)
chain: MTTEVILHYRPCESDPTQLPKIAEKAIQDFPTRPLSRFIPWFPYDGSKLPLRPKRSPPVISE
notes: SHLD3, human, residues 1-62; The general protocol cleaves the tag; also called SHLD3^RBM; source: E. coli LOBSTR, purified
For B2, the dissociation constant Kd was ~0.067 µM with REV7^R124A [1] and ~0.038 µM with REV7^WT. Further, the binding result in the test with REV7^R124A [2] is recorded as “binds”.

B3: GST-SHLD3^1-83 (domain or fragment, human, UniProt Q6ZNX1 1-83, looked up)
chain: MTTEVILHYRPCESDPTQLPKIAEKAIQDFPTRPLSRFIPWFPYDGSKLPLRPKRSPPVISEEAAEDVKQYLTISEHDAKSHS
notes: SHLD3, human, residues 1-83; also called SHLD3^RBM; source: E. coli LOBSTR, purified; not shown: GST, N-terminal, kept
B3: the binding result with MBP-REV7^WT is recorded as “binds”.
